Experimental findings from patent US20240368263A1 (PROMETHEUS BIOSCIENCES, published 2024) are described below.

Substitutions are numbered along the chain they refer to. Names and notes keep the numbering of the source.

Test [1] has as its target T1, human TL1A (endogenous, human whole blood assay) (human, UniProt O95150 1-251, limits assumed).
T1 sequence (looked up): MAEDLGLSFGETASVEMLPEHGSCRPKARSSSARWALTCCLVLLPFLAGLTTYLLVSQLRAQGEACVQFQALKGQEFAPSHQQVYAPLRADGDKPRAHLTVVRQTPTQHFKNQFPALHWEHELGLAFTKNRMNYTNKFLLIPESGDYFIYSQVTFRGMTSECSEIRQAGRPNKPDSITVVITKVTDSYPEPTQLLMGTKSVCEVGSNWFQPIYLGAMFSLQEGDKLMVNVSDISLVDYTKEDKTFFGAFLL
Put plainly: cell-based or functional assay.

The target of test [2] is T1, human TL1A (endogenous, human whole …). Put plainly: cell-based or functional assay. This is another data set of the same source.
The target of test [3] is T2, human TL1A (Fitzgerald, Prod. #30R-AT070) (human, UniProt O95150 72-251, limits assumed, biotinylated with EZ-Link Sulfo-NHS-LC-Biotin where used as soluble antigen).
T2 construct: also called TNFSF15; biotinylated human TL1A
T2 sequence (looked up): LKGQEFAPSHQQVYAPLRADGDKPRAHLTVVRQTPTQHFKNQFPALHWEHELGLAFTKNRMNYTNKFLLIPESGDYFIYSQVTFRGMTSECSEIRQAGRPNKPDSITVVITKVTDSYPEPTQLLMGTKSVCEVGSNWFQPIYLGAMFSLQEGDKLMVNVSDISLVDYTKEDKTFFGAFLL
Kind of test: ELISA. In general terms: In an ELISA, binding on a coated surface is turned into a signal by an enzyme label.

In test [4] the target is T3, Fas/TNFSF6 (R&D Systems, cat. no. 126-FL/CF) (UniProt P48023 134-281).
T3 sequence (looked up): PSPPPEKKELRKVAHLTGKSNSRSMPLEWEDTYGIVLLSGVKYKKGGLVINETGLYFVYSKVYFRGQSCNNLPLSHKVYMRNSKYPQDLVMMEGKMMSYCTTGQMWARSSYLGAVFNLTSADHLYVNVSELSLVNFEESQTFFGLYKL
Kind of test: ELISA, antigen coated at 1 µg/ml, Fab titrated. Here is the method: (§1) Next, all the Fab variants were characterized for their selectivity for human TL1A relative to other TNFSF members TRAIL, LIGHT and Fas. […] The plate was washed 3 times with PBS-T and blocked with 100 μl of 1% BSA/PBS. The block was discarded and the Fab variants or control antibodies (Fas/TNFSF6, R&D Systems, cat. no. AF126; TRAIL/TNFSF10, R&D Systems, cat. no. AF375; LIGHT/TNFSF14, R&D Systems, cat. no. AF664) were titrated in 50 μl 1% BSA/PBS and incubated for 1 h at 25° C. The plate was washed 3 times with PBS-T and secondary HRP-conjugated antibody (diluted 5,000-fold in 1% BSA/PBS) was added for 1 h at 25° C. The plate was washed 3 times with PBS-T and developed.

Test [5] has as its target LIGHT/TNFSF14 (R&D Systems, cat. no. 664-LI/CF) (UniProt O43557 74-240). Kind of test: ELISA, antigen coated at 1 µg/ml, Fab titrated. On the procedure:
as §1

Test [6] addresses TRAIL/TNFSF10 (R&D Systems, cat. no. 375-TL/CF) (UniProt P50591 114-281). Kind of test: ELISA, antigen coated at 1 µg/ml, Fab titrated. On the procedure:
as §1

For test [7], the target named is T4, membrane-associated human TL1A on transfected HEK293 cells (human, UniProt O95150 1-251).
T4 construct: whole, on cells
T4 sequence (looked up): T1 sequence (looked up)
Kind of test: flow cytometry, HEK293 cells transfected with human TL1A. On the procedure: All the Fab variants were tested for binding to membrane-associated human TL1A. For these studies a HEK293 cell line that had been transfected with human TL1A was used. The 293 cells expressing membrane bound human TL1A were maintained in DMEM containing L-glutamine, glucose, sodium pyruvate, and phenol red (ThermoFisher cat #11995-065) plus 10% fetal bovine serum, 1X penicillin-streptomycin (Fisher cat #15140122) and 2 μg/ml puromycin (Gibco cat #A11138-03) in a 37° C. incubator with 5% CO2. Three days prior to the assay, a T-75 flask was seeded with 3×10⁶ cells so that the flask was 90-95% confluent on the day of the assay. The media was aspirated and the cell monolayer was gently washed with 5 ml PBS. Adherent cells were removed by repeatedly pipetting 10 ml ice cold 1% BSA/PBS against the monolayer. The cells were counted and 5×10⁵ were aliquoted for each sample to be analyzed. The cells were collected by centrifuging at 300× g at 4° C. for 5 minutes and the wash was discarded. The cells were resuspended in 100 μl Fab or IgG diluted in 1% BSA/PBS and placed on ice for 30 min. Next, the cells were washed with 1 ml 1% BSA/PBS and collected by centrifuging at 300× g at 4° C. for 5 min. The wash was discarded and 100 μl secondary goat F (ab′) 2 anti-human kappa FITC (Southern Biotech cat #2062-02) or goat F (ab′) 2 anti-human IgG PE (Southern Biotech cat #2043-09) conjugate, diluted 1:200 in BSA/PBS was added. Cells were placed on ice for 30 min. Finally, the cells were washed with 1 ml BSA/PBS, collected by centrifuging at 300× g at 4° C. for 5 min. The wash was removed and the cells were resuspended in 500 μl 1% BSA/PBS. One drop of Sytox AADvanced ReadyFlow Reagent (ThermoFisher cat #R37173) was added per sample and the samples were analyzed on the Attune NXT Flow Cytometer (ThermoFisher).
Background: Flow cytometry measures light scatter and fluorescence of single cells or particles in a stream.

The target of test [8] is T2, human TL1A (Fitzgerald, Prod. …). Put plainly: two ELISA formats: Fab on coated TL1A; captured Fab with biotinylated TL1A. On the procedure: Fabs with the CDRs shown in Tables 19 to 22 were tested for binding to human TL1A in multiple formats. Next, uniform (saturating) quantities of soluble Fab variants were captured on the surface of an ELISA plate and soluble, biotinylated human TL1A was titrated as shown in FIGS. 10 to 13.

Sequence of TRAIL/TNFSF10 (R&D Systems, cat. no. 375-TL/CF) (P50591 114-281 limits assumed): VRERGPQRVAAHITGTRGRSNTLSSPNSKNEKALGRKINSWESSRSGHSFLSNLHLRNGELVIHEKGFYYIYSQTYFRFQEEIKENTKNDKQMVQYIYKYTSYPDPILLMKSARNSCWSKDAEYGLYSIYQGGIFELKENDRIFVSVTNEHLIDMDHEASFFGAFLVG
Sequence of LIGHT/TNFSF14 (R&D Systems, cat. no. 664-LI/CF) (O43557 74-240 limits assumed): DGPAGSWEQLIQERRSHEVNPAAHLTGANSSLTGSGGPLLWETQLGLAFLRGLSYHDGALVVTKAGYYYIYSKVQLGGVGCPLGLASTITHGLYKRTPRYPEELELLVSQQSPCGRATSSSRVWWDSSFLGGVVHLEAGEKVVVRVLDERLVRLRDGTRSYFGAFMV

B1: clone 47, modified IgG1 / kappa (antibody)
heavy: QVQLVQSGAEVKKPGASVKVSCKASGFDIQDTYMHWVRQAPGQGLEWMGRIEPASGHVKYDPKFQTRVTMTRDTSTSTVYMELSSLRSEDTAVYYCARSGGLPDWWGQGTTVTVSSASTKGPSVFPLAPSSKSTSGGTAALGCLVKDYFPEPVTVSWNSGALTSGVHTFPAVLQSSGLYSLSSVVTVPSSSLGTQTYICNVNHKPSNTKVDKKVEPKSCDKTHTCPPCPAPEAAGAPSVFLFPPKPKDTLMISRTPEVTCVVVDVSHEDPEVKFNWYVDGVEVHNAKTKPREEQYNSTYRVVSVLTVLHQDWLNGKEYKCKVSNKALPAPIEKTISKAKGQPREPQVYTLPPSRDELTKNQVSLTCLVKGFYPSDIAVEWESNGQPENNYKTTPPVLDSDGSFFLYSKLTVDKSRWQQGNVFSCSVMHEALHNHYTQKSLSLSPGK
light: EIVLTQSPGTLSLSPGERATLSCRASSSVSYMYWYQQKPGQAPRLLIYATSNLASGIPDRFSGSGSGTDFTLTISRLEPEDFAVYYCQQWEGNPRTFGGGTKLEIKRTVAAPSVFIFPPSDEQLKSGTASVVCLLNNFYPREAKVQWKVDNALQSGNSQESVTEQDSKDSTYSLSSTLTLSKADYEKHKVYACEVTHQGLSSPVTKSFNRGEC
For the molecule B1, the “IC50, inhibition of IFN-γ production, human whole blood assay” value (“IC50, inhibition of IFN-γ production” below) in test [1] turned out to be 1.26 nM.

B2: clone 23, IgG2 / kappa (antibody)
heavy: QVQLVQSGAEVKKPGASVKVSCKASGFDIQDTYMHWVRQAPGQGLEWMGRIDPASGHLKYDPKFQNRVTMTRDTSTSTVYMELSSLRSEDTAVYYCARSGGLPDKWGQGTTVTVSSASTKGPSVFPLAPCSRSTSESTAALGCLVKDYFPEPVTVSWNSGALTSGVHTFPAVLQSSGLYSLSSVVTVPSSNFGTQTYTCNVDHKPSNTKVDKTVERKCCVECPPCPAPPVAGPSVFLFPPKPKDTLMISRTPEVTCVVVDVSHEDPEVQFNWYVDGVEVHNAKTKPREEQFNSTFRVVSVLTVVHQDWLNGKEYKCKVSNKGLPAPIEKTISKTKGQPREPQVYTLPPSREEMTKNQVSLTCLVKGFYPSDIAVEWESNGQPENNYKTTPPMLDSDGSFFLYSKLTVDKSRWQQGNVFSCSVMHEALHNHYTQKSLSLSPGK
light: B1 light
Turning to B2, the “IC50, inhibition of IFN-γ production” value in test [1] was determined as 0.33 nM.

B3: clone 14, IgG2 / kappa (antibody)
heavy: B2 heavy with L58I, N66K, K105M
light: B1 light with E91Q
Regarding B3, the “IC50, inhibition of IFN-γ production” value in test [1] was determined as 0.35 nM.

B4: clone 47, IgG2 / kappa (antibody)
heavy: B2 heavy with D52E, L58V, N66T, K105W
light: B1 light
For the molecule B4, the “IC50, inhibition of IFN-γ production” value in test [1] worked out at 1.01 nM.

B5: clone 34, IgG2 / kappa (antibody)
heavy: B2 heavy with D52E, L58I, N66G, K105W
light: B1 light
B5: the “IC50, inhibition of IFN-γ production” value in test [1] is 0.16 nM.

B6: 1D1 anti-TL1A antibody (antibody, V domains shown)
VH: QVQLVQSGAEVKKPGASVKVSCKASGYDFTYYGISWVRQAPGQGLEWMGWISTYNGNTHYARMLQGRVTMTTDTSTRTAYMELRSLRSDDTAVYYCARENYYGSGAYRGGMDVWGQGTTVTVSS
VL: EIVLTQSPATLSLSPGERATLSCRASQSVSSYLAWYQQKPGQAPRLLIYDASNRATGIPARFSGSGSGTDFTLTISSLEPEDFAVYYCQQRSNWPWTFGQGTKVEIK
For the molecule B6, the “Potency (IC50, nM), human whole blood assay, mean” value in test [2] is 0.27 nM.

B7: H3-7 (V102K) Fab (Fab, V domains shown)
VH: QVQLVQSGAEVKKPGASVKVSCKASGFDIQDTYMHWVRQAPGQGLEWMGRIDPASGHTKYDPKFQVRVTMTRDTSTSTVYMELSSLRSEDTAVYYCARSGGLPDKWGQGTTVTVSS
VL: EIVLTQSPGTLSLSPGERATLSCRASSSVSYMYWYQQKPGQAPRLLIYATSNLASGIPDRFSGSGSGTDFTLTISRLEPEDFAVYYCQQWSGNPRTFGGGTKLEIK
notes: Fab; also called 21-3 V102K heavy chain with 18-7 light chain
Consider B7, for which the binding result in test [3] is given as “binds”.

B8: H3-7 (V102W) Fab (Fab, V domains shown)
VH: B7 VH with K105W
VL: B7 VL
notes: Fab; also called 21-3 V102W heavy chain with 18-7 light chain
Take B8: in test [3], the binding result was “binds”.

B9: L3-4 (S92E) Fab (Fab, V domains shown)
VH: B7 VH with K105V
VL: B7 VL with S91E
notes: Fab; also called 18-7 S92E light chain with 21-3 heavy chain
On to B9, for which, in test [3], the binding result is given as “binds”.

B10: L3-4 (S92N) Fab (Fab, V domains shown)
VH: B7 VH with K105V
VL: B7 VL with S91N
notes: Fab; also called 18-7 S92N light chain with 21-3 heavy chain
With B10, in test [3], the binding result is recorded as “binds”.

B11: L3-4 (S92H) Fab (Fab, V domains shown)
VH: B7 VH with K105V
VL: B7 VL with S91H
notes: Fab; also called 18-7 S92H light chain with 21-3 heavy chain
As to B11, in test [3], the binding result was “binds”.

B12: H3-7 (V102M) Fab (Fab, V domains shown)
VH: B7 VH with K105M
VL: B7 VL
notes: Fab; also called 21-3 V102M heavy chain with 18-7 light chain
As for B12, the binding result in test [3] is “binds”.

B13: L3-4 (S92D) Fab (Fab, V domains shown)
VH: B7 VH with K105V
VL: B7 VL with S91D
notes: Fab; also called 18-7 S92D light chain with 21-3 heavy chain
B13: the binding result in test [3] was “binds”.

B14: Clone XL3-15 Fab (Fab, V domains shown)
VH: B7 VH with V66G, V68A, M70I, R72T, T76A, V79A, M81L, E82Q, K105F
VL: B7 VL with G92R
notes: Fab
On to B14, for which the binding result in test [4] is listed as “no binding”; in test [5], “no binding”; in test [6] it was “no binding”; in test [7], “binds”; in test [8], “binds”.

B15: H3-7 (V102Q) Fab (Fab, V domains shown)
VH: B7 VH with K105Q
VL: B7 VL
notes: Fab; also called 21-3 V102Q heavy chain with 18-7 light chain
Consider B15, for which the binding result in test [3] is reported as “binds”.

B16: L3-4 (S92Q) Fab (Fab, V domains shown)
VH: B7 VH with K105V
VL: B7 VL with S91Q
notes: Fab; also called 18-7 S92Q light chain with 21-3 heavy chain
As to B16, in test [3], the binding result is on record as “binds”.
